We go through eight molecules from article PMC4919518.

One data set concerns the target T1, RsAgo delN20 (Rhodobacter sphaeroides (ATCC 17025D-5), UniProt A4WYU7 21-777, del1-20).
T1 sequence: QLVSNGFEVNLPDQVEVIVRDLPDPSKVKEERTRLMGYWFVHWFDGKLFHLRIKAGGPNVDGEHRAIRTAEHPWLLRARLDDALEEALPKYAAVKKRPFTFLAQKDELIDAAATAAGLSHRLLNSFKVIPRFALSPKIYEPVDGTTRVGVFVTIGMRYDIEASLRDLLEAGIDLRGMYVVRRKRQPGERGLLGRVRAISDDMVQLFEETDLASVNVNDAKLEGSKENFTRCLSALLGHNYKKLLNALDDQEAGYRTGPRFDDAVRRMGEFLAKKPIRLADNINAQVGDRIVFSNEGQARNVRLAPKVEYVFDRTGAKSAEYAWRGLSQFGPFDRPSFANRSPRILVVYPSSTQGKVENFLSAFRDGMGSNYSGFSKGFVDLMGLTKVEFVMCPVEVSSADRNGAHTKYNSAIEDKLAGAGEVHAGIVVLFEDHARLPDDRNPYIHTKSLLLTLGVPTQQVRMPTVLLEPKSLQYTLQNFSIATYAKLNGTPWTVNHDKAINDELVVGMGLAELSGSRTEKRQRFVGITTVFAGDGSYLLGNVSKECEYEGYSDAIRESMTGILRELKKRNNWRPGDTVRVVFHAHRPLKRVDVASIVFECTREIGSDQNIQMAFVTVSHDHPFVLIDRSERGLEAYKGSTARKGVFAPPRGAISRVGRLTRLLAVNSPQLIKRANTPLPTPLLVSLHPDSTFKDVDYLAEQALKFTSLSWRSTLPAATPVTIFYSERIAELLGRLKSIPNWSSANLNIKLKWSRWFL
The data set is described as follows: X-ray crystal structure (2 A); Mg2+ at guide phosphates 1 and 3 and L777 carboxylate; FP: 20 mM HEPES-KOH pH 7.5, 200 mM NaCl, 5 mM MgCl2, 0.01 mg/ml E. coli total tRNA, 0.01% NP-40, 10 pM probe, 25 C; EMSA: 20 mM HEPES-KOH pH 7.5, 200 mM NaCl, 5. For orientation: Mobility shift assays separate free from complexed probe on a gel.

Data set [1] has as its target T2, RsAgo WT (Rhodobacter sphaeroides (ATCC 17025D-5), UniProt A4WYU7 1-777).
T2 sequence: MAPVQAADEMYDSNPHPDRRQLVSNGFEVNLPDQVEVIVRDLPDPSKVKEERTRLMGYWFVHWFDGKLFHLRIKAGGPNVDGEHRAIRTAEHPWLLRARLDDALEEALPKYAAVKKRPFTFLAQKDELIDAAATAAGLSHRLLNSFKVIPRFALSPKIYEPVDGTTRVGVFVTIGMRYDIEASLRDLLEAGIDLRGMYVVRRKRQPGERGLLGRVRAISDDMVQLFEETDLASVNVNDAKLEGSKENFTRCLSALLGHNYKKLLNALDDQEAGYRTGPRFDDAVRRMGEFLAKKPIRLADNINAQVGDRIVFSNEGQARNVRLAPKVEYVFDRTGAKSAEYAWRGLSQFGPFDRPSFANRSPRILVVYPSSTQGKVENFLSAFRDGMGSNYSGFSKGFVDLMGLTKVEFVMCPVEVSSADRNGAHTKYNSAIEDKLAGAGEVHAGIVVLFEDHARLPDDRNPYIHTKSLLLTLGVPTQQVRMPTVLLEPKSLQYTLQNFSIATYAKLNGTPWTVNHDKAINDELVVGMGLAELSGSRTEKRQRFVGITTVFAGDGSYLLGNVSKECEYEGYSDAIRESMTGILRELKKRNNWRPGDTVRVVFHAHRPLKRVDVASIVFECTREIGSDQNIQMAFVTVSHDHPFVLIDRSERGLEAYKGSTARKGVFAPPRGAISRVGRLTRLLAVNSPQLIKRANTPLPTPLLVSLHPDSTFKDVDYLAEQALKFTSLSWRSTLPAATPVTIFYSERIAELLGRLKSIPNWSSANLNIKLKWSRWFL
The data set is described as follows: fluorescence polarization; 5 mM Mg2+; FP: 20 mM HEPES-KOH pH 7.5, 200 mM NaCl, 5 mM MgCl2, 0.01 mg/ml E. coli total tRNA, 0.01% NP-40, 10 pM probe, 25 C; EMSA: 20 mM HEPES-KOH pH 7.5, 200 mM NaCl, 5. A general note: Fluorescence polarisation rises when a labelled molecule tumbles more slowly, as on binding a larger partner.

Data set [2] deals with T2, RsAgo WT. The data set is described as follows: EMSA; 5 mM Mg2+; FP: 20 mM HEPES-KOH pH 7.5, 200 mM NaCl, 5 mM MgCl2, 0.01 mg/ml E. coli total tRNA, 0.01% NP-40, 10 pM probe, 25 C; EMSA: 20 mM HEPES-KOH pH 7.5, 200 mM NaCl, 5.
The next data set deals with T3, RsAgo delP45-W63 (Rhodobacter sphaeroides (ATCC 17025D-5), UniProt A4WYU7 1-777, del45-63).
T3 sequence: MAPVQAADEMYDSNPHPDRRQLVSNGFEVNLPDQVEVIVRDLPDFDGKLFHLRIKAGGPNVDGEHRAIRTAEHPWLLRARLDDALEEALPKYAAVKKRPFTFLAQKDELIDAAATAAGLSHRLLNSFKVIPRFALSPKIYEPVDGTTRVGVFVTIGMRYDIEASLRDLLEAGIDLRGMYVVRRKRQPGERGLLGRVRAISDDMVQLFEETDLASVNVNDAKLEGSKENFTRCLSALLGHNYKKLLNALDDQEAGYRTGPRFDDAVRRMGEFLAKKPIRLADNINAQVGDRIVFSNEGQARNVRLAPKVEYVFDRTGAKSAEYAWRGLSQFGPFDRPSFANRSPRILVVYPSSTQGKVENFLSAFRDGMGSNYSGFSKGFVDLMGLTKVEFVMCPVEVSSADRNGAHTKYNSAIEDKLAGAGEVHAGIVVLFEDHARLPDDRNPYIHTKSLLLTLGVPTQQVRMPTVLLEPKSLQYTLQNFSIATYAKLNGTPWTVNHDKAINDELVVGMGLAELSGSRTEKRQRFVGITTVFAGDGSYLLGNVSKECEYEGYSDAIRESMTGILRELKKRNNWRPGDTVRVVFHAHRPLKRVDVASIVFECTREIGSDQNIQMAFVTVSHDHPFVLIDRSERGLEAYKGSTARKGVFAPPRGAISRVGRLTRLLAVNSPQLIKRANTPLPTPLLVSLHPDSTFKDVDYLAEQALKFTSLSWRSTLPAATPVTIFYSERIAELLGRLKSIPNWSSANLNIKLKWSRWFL
The data set can be described thus: EMSA; RsAgo-guide RNA complex titrated on target DNA; FP: 20 mM HEPES-KOH pH 7.5, 200 mM NaCl, 5 mM MgCl2, 0.01 mg/ml E. coli total tRNA, 0.01% NP-40, 10 pM probe, 25 C; EMSA: 20 mM HEPES-KOH pH 7.5, 200 mM NaCl, 5.

In general, Kd refers to a measure of binding affinity in units of concentration. Read a low Kd as higher affinity.

B1: 18-nt guide RNA/18-nt target DNA (crystal) (DNA:RNA)
RNA: UUACAACCUACUACCUCG
DNA: CGAGGTAGTAGGTTGTAA
modifications: 5'-phosphate on guide
For the molecule B1, in the data set with RsAgo delN20, the binding result is listed as “binds”.
In turn, AUACAACCUACUACCUCG (ssRNA, 5'-phosphate) [5'A-RNA, FAM] returned a Kd in the data set with RsAgo WT [1] of 24.8 ± 1.7 nM.
In turn, UUACAACCUACUACCUCG (ssRNA, 5'-OH) [5'OH-RNA, FAM] gave a Kd in the data set with RsAgo WT [1] of 1140 ± 54 nM.

B2: 5'P-RNA/DNA (RR/DD) (DNA:RNA)
RNA: UUACAACCUACUACCUCG
DNA: CGAGGTAGTAGGTTGTAA
modifications: 5'-phosphate on guide
In the case of B2, the binding result with RsAgo WT [2] was “binds”.
Consider TTACAACCTACTACCTCG (ssDNA, 5'-phosphate) [5'P-DNA, FAM], for which the Kd with RsAgo WT [1] was 42.6 ± 3.4 nM.
As for CUACAACCUACUACCUCG (ssRNA, 5'-phosphate) [5'C-RNA, FAM], binding in the data set with RsAgo WT [1] was characterised by a dissociation constant (Kd) of 67 ± 3.5 nM. Compared with the last molecule, the Kd is about 1.6-fold higher.

B3: guide 5'P-RNA + 70-base target DNA (DNA:RNA)
RNA: UUACAACCUACUACCUCG
DNA: TAAAATCTTAAAGTTATTATTTCTATACGAGGTAGTAGGTTGTAATTATCACAATTTATAGTAGTATTAA
modifications: 5'-phosphate on guide
Take B3: the binding result with RsAgo delP45-W63 is recorded as “no binding”.
As for GUACAACCUACUACCUCG (ssRNA, 5'-phosphate) [5'G-RNA, FAM], the Kd in the data set with RsAgo WT [1] came to 181 ± 13.3 nM.
